Drawing on the array DNA melting data of Ke et al., this text covers Tm for 66 substances.

One may read the Tm as the temperature at which the thermal transition is half complete.

The data set can be described thus: melting temperature; melt of duplexes. The conditions noted are these: sodium 0.0675 M; strand 1 µM.
Turning to “CGACGTGCTTCATGTGCTG+CAGCACATGCTGCACGTCG ((((((((..(((((((((+)))))))))..))))))))”, the Tm was determined as 53.1 °C. With “CGACGTGCAATATGTGCTG+CAGCACATGTTGCACGTCG ((((((((((.((((((((+)))))))).))))))))))”, the Tm turned out to be 58.4 °C. Turning to “CGACGTGCACAATGTGCTG+CAGCACATTGGGCACGTCG ((((((((.((((((((((+)))))))))).))))))))”, the Tm amounted to 61.2 °C. With “CGACGTGCCACATGTGCTG+CAGCACATCAAGCACGTCG ((((((((...((((((((+))))))))...))))))))”, the Tm came to 47.7 °C. Consider “CGACGTGCCCCATGTGCTG+CAGCACATCTAGCACGTCG ((((((((...((((((((+))))))))...))))))))”, for which the Tm came out at 47.3 °C.

“CGACGTGCGTAATGTGCTG+CAGCACATTCAGCACGTCG ((((((((..(((((((((+)))))))))..))))))))”: the midpoint of thermal melting (Tm) worked out at 54.7 °C. Take “CGACGTGCATCATGTGCTG+CAGCACATTGCGCACGTCG ((((((((...((((((((+))))))))...))))))))”: the Tm came to 46.9 °C. “CGACGTGCTCCATGTGCTG+CAGCACATAGAGCACGTCG ((((((((((.((((((((+)))))))).))))))))))”: the Tm stood at 56.2 °C. On to “CGACGTGCCCTATGTGCTG+CAGCACATTCGGCACGTCG (((((((((..((((((((+))))))))..)))))))))”, for which the Tm was determined as 52.9 °C.

As for “CGACGTGCGTAATGTGCTG+CAGCACATACTGCACGTCG ((((((((...((((((((+))))))))...))))))))”, the Tm came out at 52.4 °C. The same measure for “CGACGTGCGTTATGTGCTG+CAGCACATTGAGCACGTCG ((((((((...((((((((+))))))))...))))))))”: 54 °C; for “CGACGTGCAGTATGTGCTG+CAGCACATTGCGCACGTCG ((((((((...((((((((+))))))))...))))))))”: 49.3 °C. Take “CGACGTGCGGCATGTGCTG+CAGCACATCGCGCACGTCG (((((((((..((((((((+))))))))..)))))))))”: the Tm was found to be 55.2 °C. For the substance “CGACGTGCCTTATGTGCTG+CAGCACATTTTGCACGTCG ((((((((...((((((((+))))))))...))))))))”, the Tm worked out at 47.9 °C. As to “CGACGTGCTAAATGTGCTG+CAGCACATCCAGCACGTCG (((((((((..((((((((+))))))))..)))))))))”, the Tm amounted to 50.8 °C.

Consider “CGACGTGCTTAATGTGCTG+CAGCACATCGCGCACGTCG ((((((((...((((((((+))))))))...))))))))”, for which the Tm was determined as 46.7 °C. On to “CGACGTGCTCGATGTGCTG+CAGCACATGACGCACGTCG ((((((((...((((((((+))))))))...))))))))”, for which the midpoint of thermal melting (Tm) was found to be 47.4 °C. With “CGACGTGCCATATGTGCTG+CAGCACATCCTGCACGTCG ((((((((...((((((((+))))))))...))))))))”, the Tm was 47.7 °C.

Consider “CGACGTGCGCAATGTGCTG+CAGCACATGTCGCACGTCG (((((((((..((((((((+))))))))..)))))))))”, for which the Tm was 56.1 °C. For the substance “CGACGTGCCATATGTGCTG+CAGCACATATAGCACGTCG ((((((((.((((((((((+)))))))))).))))))))”, the Tm is 53.2 °C. For the substance “CGACGTGCCACATGTGCTG+CAGCACATGGCGCACGTCG ((((((((..(((((((((+)))))))))..))))))))”, the Tm was 54 °C. For “CGACGTGCAGCATGTGCTG+CAGCACATATCGCACGTCG ((((((((...((((((((+))))))))...))))))))”, the Tm was determined as 46.6 °C. For “CGACGTGCGGTATGTGCTG+CAGCACATGCGGCACGTCG ((((((((.(.((((((((+)))))))).).))))))))”, the Tm was determined as 55.1 °C. The same measure for “CGACGTGCGCGATGTGCTG+CAGCACATGGAGCACGTCG ((((((((.(.((((((((+)))))))).).))))))))”: 56 °C. As to “CGACGTGCCTCATGTGCTG+CAGCACATATGGCACGTCG (((((((((..((((((((+))))))))..)))))))))”, the Tm came to 54 °C.

As to “CGACGTGCGCTATGTGCTG+CAGCACATGTGGCACGTCG ((((((((...((((((((+))))))))...))))))))”, the midpoint of thermal melting (Tm) turned out to be 50.8 °C. Consider “CGACGTGCAAGATGTGCTG+CAGCACATCGGGCACGTCG ((((((((..(((((((((+)))))))))..))))))))”, for which the Tm was determined as 57 °C. Regarding “CGACGTGCCAGATGTGCTG+CAGCACATGGCGCACGTCG ((((((((...((((((((+))))))))...))))))))”, the Tm turned out to be 50.4 °C. On to “CGACGTGCCAGATGTGCTG+CAGCACATCAAGCACGTCG ((((((((..(((((((((+)))))))))..))))))))”, for which the Tm amounted to 53.7 °C.

Take “CGACGTGCGGAATGTGCTG+CAGCACATATGGCACGTCG ((((((((...((((((((+))))))))...))))))))”: the Tm is 50.8 °C. For the substance “CGACGTGCTGAATGTGCTG+CAGCACATACGGCACGTCG ((((((((.(.((((((((+)))))))).).))))))))”, the melting temperature (Tm) is 54.1 °C.

In the case of “CGACGTGCCACATGTGCTG+CAGCACATAACGCACGTCG ((((((((...((((((((+))))))))...))))))))”, the Tm worked out at 47.1 °C. On to “CGACGTGCTCCATGTGCTG+CAGCACATGAAGCACGTCG (((((((((.(((((((((+))))))))).)))))))))”, for which the Tm amounted to 57.4 °C. Take “CGACGTGCCGTATGTGCTG+CAGCACATTGAGCACGTCG ((((((((...((((((((+))))))))...))))))))”: the Tm stood at 49.8 °C. For “CGACGTGCAAAATGTGCTG+CAGCACATACCGCACGTCG ((((((((...((((((((+))))))))...))))))))”, the Tm is 48.1 °C. As for “CGACGTGCATAATGTGCTG+CAGCACATGTTGCACGTCG (((((((((..((((((((+))))))))..)))))))))”, the melting temperature (Tm) turned out to be 53.7 °C. As to “CGACGTGCTTAATGTGCTG+CAGCACATGATGCACGTCG ((((((((.(.((((((((+)))))))).).))))))))”, the Tm came out at 53 °C. In the case of “CGACGTGCGCAATGTGCTG+CAGCACATTTCGCACGTCG (((((((((.(((((((((+))))))))).)))))))))”, the Tm amounted to 57.5 °C. For the substance “CGACGTGCAAAATGTGCTG+CAGCACATCAGGCACGTCG ((((((((...((((((((+))))))))...))))))))”, the Tm stood at 49.4 °C.

In the case of “CGACGTGCAGCATGTGCTG+CAGCACATAACGCACGTCG ((((((((...((((((((+))))))))...))))))))”, the Tm came out at 47.6 °C. Consider “CGACGTGCTTGATGTGCTG+CAGCACATCAAGCACGTCG (((((((((((((((((((+)))))))))))))))))))”, for which the Tm was 64.9 °C.

Regarding “CGACGTGCGATATGTGCTG+CAGCACATGAGGCACGTCG ((((((((...((((((((+))))))))...))))))))”, the melting temperature (Tm) was determined as 53.1 °C. For the substance “CGACGTGCGTTATGTGCTG+CAGCACATACTGCACGTCG ((((((((..(((((((((+)))))))))..))))))))”, the Tm worked out at 51.6 °C. Take “CGACGTGCGCTATGTGCTG+CAGCACATAAGGCACGTCG ((((((((..(((((((((+)))))))))..))))))))”: the Tm came to 51.6 °C. Regarding “CGACGTGCCGCATGTGCTG+CAGCACATGGCGCACGTCG ((((((((..(((((((((+)))))))))..))))))))”, the melting temperature (Tm) stood at 54.9 °C. The value for “CGACGTGCAATATGTGCTG+CAGCACATGCTGCACGTCG (((((((((..((((((((+))))))))..)))))))))” was 50.7 °C; that for “CGACGTGCTCCATGTGCTG+CAGCACATGGAGCACGTCG (((((((((((((((((((+)))))))))))))))))))” was 66.1 °C. The value for “CGACGTGCAGCATGTGCTG+CAGCACATGTAGCACGTCG ((((((((..(((((((((+)))))))))..))))))))” was 54.4 °C. Regarding “CGACGTGCAAGATGTGCTG+CAGCACATAACGCACGTCG ((((((((...((((((((+))))))))...))))))))”, the melting temperature (Tm) was 48.6 °C.

With “CGACGTGCTATATGTGCTG+CAGCACATAACGCACGTCG ((((((((..(((((((((+)))))))))..))))))))”, the Tm came out at 50.8 °C.

Turning to “CGACGTGCCACATGTGCTG+CAGCACATGCGGCACGTCG (((((((((.(((((((((+))))))))).)))))))))”, the Tm was found to be 60.2 °C. For the substance “CGACGTGCACAATGTGCTG+CAGCACATTAGGCACGTCG ((((((((..(((((((((+)))))))))..))))))))”, the Tm was found to be 50.6 °C. For “CGACGTGCGGCATGTGCTG+CAGCACATCTGGCACGTCG ((((((((...((((((((+))))))))...))))))))”, the melting temperature (Tm) was 51.1 °C. As for “CGACGTGCTCTATGTGCTG+CAGCACATAACGCACGTCG ((((((((..(((((((((+)))))))))..))))))))”, the Tm was 49.7 °C. As for “CGACGTGCGATATGTGCTG+CAGCACATGGTGCACGTCG ((((((((...((((((((+))))))))...))))))))”, the Tm amounted to 49.2 °C.

In the case of “CGACGTGCAACATGTGCTG+CAGCACATCCGGCACGTCG ((((((((...((((((((+))))))))...))))))))”, the Tm turned out to be 47.7 °C. As for “CGACGTGCATAATGTGCTG+CAGCACATCAAGCACGTCG ((((((((.(.((((((((+)))))))).).))))))))”, the Tm came out at 48.4 °C. Regarding “CGACGTGCTGGATGTGCTG+CAGCACATCGTGCACGTCG ((((((((..(((((((((+)))))))))..))))))))”, the melting temperature (Tm) came to 53.2 °C.

On to “CGACGTGCCACATGTGCTG+CAGCACATTTTGCACGTCG ((((((((.(.((((((((+)))))))).).))))))))”, for which the Tm was determined as 48 °C.

In the case of “CGACGTGCTCGATGTGCTG+CAGCACATCCCGCACGTCG ((((((((..(((((((((+)))))))))..))))))))”, the Tm is 52.1 °C. For the substance “CGACGTGCCTCATGTGCTG+CAGCACATGTAGCACGTCG ((((((((..(((((((((+)))))))))..))))))))”, the Tm turned out to be 52.9 °C. Regarding “CGACGTGCCGGATGTGCTG+CAGCACATTAAGCACGTCG ((((((((...((((((((+))))))))...))))))))”, the Tm was determined as 50.4 °C. The value for “CGACGTGCAAGATGTGCTG+CAGCACATCCTGCACGTCG (((((((((.(((((((((+))))))))).)))))))))” was 56.5 °C; that for “CGACGTGCTCCATGTGCTG+CAGCACATCTCGCACGTCG ((((((((...((((((((+))))))))...))))))))” was 46.2 °C. Consider “CGACGTGCGATATGTGCTG+CAGCACATTTTGCACGTCG ((((((((.(.((((((((+)))))))).).))))))))”, for which the Tm is 52.5 °C. Regarding “CGACGTGCCTGATGTGCTG+CAGCACATGTCGCACGTCG ((((((((...((((((((+))))))))...))))))))”, the Tm came out at 48 °C.
